Target: the molecule itself
Experiment: SEC-MALS

B1: recombinant BCAS0292 (natural protein)
chain: MSGVRCDGLAIVDAVTLLSAYPDASRDADAPTVIDGRHIYVLRPGDAGQVGHNDNRLFAGLSPGDQLHLRETALALRAEVTVLFIRFALKDAGIVAPIEAEIRDAATPVPDGDDLLHPSCRPMKDHFWRSEVLAPGITTCTADFAVLDRDGAVSGYFRWETAIEIAGSRPDTKQPGVEP
stoichiometry N: 2

— paper doi:10.1101/2020.08.06.226779 (bioRxiv, 2020)
